Results as given in patent US20230265151A1, “GIP/GLP1 CO-AGONIST COMPOUNDS” (priority 2020, published 2023).
*1 amine or outer side, *2 acyl side, *3 side chain or, on linkers, in order; H or OH if unused. Where no end group is shown, it is not given here. Side-chain parts run from the residue outwards. [ ]: non-standard residue; d: D form. The star is where a group is joined. αMePhe(2-F) = C[C@](N)(Cc1ccccc1F)C(=O)O; γGlu = O=C(O)[C@H](CCC(=O)[*:2])N[*:1]; C14 diacid = O=C(O)CCCCCCCCCCCCC(=O)*; αMeY = C[C@](N)(Cc1ccc(O)cc1)C(=O)O; αMeL = CC(C)C[C@](C)(N)C(=O)O; Orn = NCCC[C@H](N)C(=O)O; AEEA = NCCOCCOCC(=O)O; Aib = CC(C)(N)C(=O)O

T1: human GIP receptor (human, UniProt P48546 22-466)
T1 sequence (looked up): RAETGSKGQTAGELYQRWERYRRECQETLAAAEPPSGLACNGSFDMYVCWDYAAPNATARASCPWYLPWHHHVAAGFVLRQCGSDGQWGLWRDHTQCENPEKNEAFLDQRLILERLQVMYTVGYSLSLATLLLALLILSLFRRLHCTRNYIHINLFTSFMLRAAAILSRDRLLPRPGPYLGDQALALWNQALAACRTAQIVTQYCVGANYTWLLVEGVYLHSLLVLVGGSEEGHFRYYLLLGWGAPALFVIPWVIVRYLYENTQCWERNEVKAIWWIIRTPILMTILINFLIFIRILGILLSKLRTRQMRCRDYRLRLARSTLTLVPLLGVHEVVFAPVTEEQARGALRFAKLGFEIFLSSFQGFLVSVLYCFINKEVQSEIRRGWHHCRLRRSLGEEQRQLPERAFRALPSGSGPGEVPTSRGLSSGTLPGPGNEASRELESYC

B1: Example 276 (peptide)
peptide: YXEGTXTSDXSIXLDXIAQXKFIXXLIEGGPSSGAPPPSK
modifications: Y-Aib-EGT-αMeF(2F)-TSD-4Pal-SI-αMeL-LD-Orn-IAQ-Aib-K((2-[2-(2-Amino-ethoxy)-ethoxy]-acetyl)2-(y-Glu)-(10-(4-carboxyphenoxy)decanoyl))FI-(D-Glu)-αMeY-LIEGGPSSGAPPPSK((2-[2-(2-Amino-ethoxy)-ethoxy]-acetyl)2-(γ-Glu)-(10-(4-carboxyphenoxy)decanoyl))-NH2
B2: Example 303 (peptide)
peptide: YXEGTXTSDYXIXLDXIAQXEFIKXLIKGGPSSGAPPPS
modifications: Y-Aib-EGT-αMeF(2F)-TSDY-αMeS-I-αMeL-LD-Orn-IAQ-Aib-EFIK((2-[2-(2-Amino-ethoxy)-ethoxy]-acetyl)2-(γ-Glu)-CO-(CH2)12-CO2H)-αMeY-LIK((2-[2-(2-Amino-ethoxy)-ethoxy]-acetyl)2-(γ-Glu)-CO-(CH2)12-CO2H)GGPSSGAPPPS-NH2
B3: Example 315 (peptide)
peptide: YXEGTXTSDXXIXLDXIAQXXFIKXLIKGGPSSGAPPPS
modifications: Y-Aib-EGT-αMeF(2F)-TSD-4Pal-Aib-I-αMeL-LD-Orn-IAQ-Aib-Orn-FIK((2-[2-(2-Amino-ethoxy)-ethoxy]-acetyl)2-(γ-Glu)-CO-(CH2)12-CO2H)-αMeY-LIK((2-[2-(2-Amino-ethoxy)-ethoxy]-acetyl)2-(γ-Glu)-CO-(CH2)12-CO2H)GGPSSGAPPPS-NH2
B4: Example 311 (peptide)
peptide: YXEGTXTSDXXIXLDXIAQXEFIKXLIKGGPSSGAPPPS
modifications: Y-Aib-EGT-αMeF(2F)-TSD-4Pal-Aib-I-αMeL-LD-Orn-IAQ-Aib-EFIK(2-[2-(2-Amino-ethoxy)-ethoxy]-acetyl)2-(γ-Glu)-(11-(4-carboxyphenoxy)undecanoyl)-αMeY-LIK((2-[2-(2-Amino-ethoxy)-ethoxy]-acetyl)2-(γ-Glu)-(11-(4-carboxyphenoxy)undecanoyl)GGPSSGAPPPS-NH2)
B5: Example 307 (peptide)
peptide: YXEGTXTSDYXIXLDXIAQXEFIKXLIKGGPSSGAPPPS
modifications: Y-Aib-EGT-αMeF(2F)-TSDY-αMeS-I-αMeL-LD-Orn-IAQ-Aib-EFIK((2-[2-(2-Amino-ethoxy)-ethoxy]-acetyl)2-(γ-Glu)-(10-(4-carboxyphenoxy)decanoyl))-αMeY-LIK((2-[2-(2-Amino-ethoxy)-ethoxy]-acetyl)2-(γ-Glu)-(10-(4-carboxyphenoxy)decanoyl))GGPSSGAPPPS-NH2
B6: Example 312 (peptide)
peptide: YXEGTXTSDYXIXLDXIAQXEFIKXLIKGGPSSGAPPPS
modifications: Y-Aib-EGT-αMeF(2F)-TSDY-Aib-I-αMeL-LD-Orn-IAQ-Aib-EFIK(2-[2-(2-Amino-ethoxy)-ethoxy]-acetyl)2-(γ-Glu)-(11-(4-carboxyphenoxy)undecanoyl)-αMeY-LIK((2-[2-(2-Amino-ethoxy)-ethoxy]-acetyl)2-(γ-Glu)-(11-(4-carboxyphenoxy)undecanoyl)GGPSSGAPPPS-NH2)
B7: Example 316 (peptide)
peptide: YXEGTXTSDYXIXLDXIAQXXFIKXLIKGGPSSGAPPPS
modifications: Y-Aib-EGT-αMeF(2F)-TSDY-Aib-I-αMeL-LD-Orn-IAQ-Aib-Orn-FIK((2-[2-(2-Amino-ethoxy)-ethoxy]-acetyl)2-(γ-Glu)-CO-(CH2)12-CO2H)-αMeY-LIK((2-[2-(2-Amino-ethoxy)-ethoxy]-acetyl)2-(γ-Glu)-CO-(CH2)12-CO2H)GGPSSGAPPPS-NH2
B8: Example 306 (peptide)
peptide: YXEGTXTSDXXIXLDXIAQXEFIKXLIKGGPSSGAPPPS
modifications: Y-Aib-EGT-αMeF(2F)-TSD-4Pal-αMeS-I-αMeL-LD-Orn-IAQ-Aib-EFIK((2-[2-(2-Amino-ethoxy)-ethoxy]-acetyl)2-(γ-Glu)-(10-(4-carboxyphenoxy)decanoyl))-αMeY-LIK((2-[2-(2-Amino-ethoxy)-ethoxy]-acetyl)2-(γ-Glu)-(10-(4-carboxyphenoxy)decanoyl))GGPSSGAPPPS-NH2
B9: Example 317 (peptide)
peptide: Y[Aib]EGT[αMePhe(2-F)]TSDV[Aib]I[αMeL]LD[Orn]IAQ[Aib][Orn]FIK([AEEA-AEEA-γGlu-C14 diacid])[αMeY]LIK([AEEA-AEEA-γGlu-C14 diacid])GGPSSGAPPPS-NH2

Columns and labels:
Assay in all cases: cell-based or functional assay
human GIP receptor = target: T1, human GIP receptor
human GLP-1 receptor = human GLP-1 receptor (human, UniProt P43220 24-463)
human glucagon receptor = human glucagon receptor (human, UniProt P47871 26-477)

Row | Binder | cAMP EC50 (1.0% HSA) (human GIP receptor) [µM] | cAMP Emax (1.0% HSA) (human GIP receptor) [%] | cAMP EC50 (1.0% HSA) (human GLP-1 receptor) [µM] | cAMP EC50 (1.0% HSA) (human glucagon receptor) [µM] | cAMP Emax (1.0% HSA) (human GLP-1 receptor) [%]
1 | B1 | 0.00197 | 91.4 | 0.0636 | > 9.95 | –
2 | B2 | 0.002 | 89.8 | 0.0504 | > 9.95 | –
3 | B3 | 0.000393 | 89.2 | 0.00538 | > 9.95 | 93.5
4 | B4 | 0.00216 | 98.3 | 0.0338 | > 9.95 | –
5 | B5 | 0.00166 | 81.8 | 0.033 | > 9.95 | –
6 | B6 | 0.00448 | 89.5 | 0.0508 | > 9.95 | –
7 | B7 | 0.00111 | – | 0.0192 | > 9.95 | 113
8 | B8 | 0.00112 | – | 0.0182 | > 9.95 | –
9 | B9 | 0.00203 | 84.4 | 0.0295 | > 9.95 | –
